Laboratory results reported in patent US7807396.

Experiments:
[1] = target: amyloid beta peptide Aβ1-40
[2] = target: T1, human β-endorphin1-31, P01189
T1 chain: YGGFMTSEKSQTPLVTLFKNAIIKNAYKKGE

[3] = target: aggregated amyloid β1-40 pre-coated on 96 well plates (synthetic amyloid plaque, synthaloid)
[4] = target: amyloid beta peptide Aβ1-42

B1: human neprilysin expressed from a lentiviral construct in primary neuronal cultures of neprilysin deficient mice (protein)
chain: GKSESQMDITDINTPKPKKKQRWTPLEISLSVLVLLLTIIAVTMIALYATYDDGICKSSDCIKSAARLIQNMDATTEPCTDFFKYACGGWLKRNVIPETSSRYGNFDILRDELEVVLKDVLQEPKTEDIVAVQKAKALYRSCINESAIDSRGGEPLLKLLPDIYGWPVATENWEQKYGASWTAEKAIAQLNSKYGKKVLINLFVGTDDKNSVNHVIHIDQPRLGLPSRDYYECTGIYKEACTAYVDFMISVARLIRQEERLPIDENQLALEMNKVMELEKEIANATAKPEDRNDPMLLYNKMTLAQIQNNFSLEINGKPFSWLNFTNEIMSTVNISITNEEDVVVYAPEYLTKLKPILTKYSARDLQNLMSWRFIMDLVSSLSRTYKESRNAFRKALYGTTSETATWRRCANYVNGNMENAVGRLYVEAAFAGESKHVVEDLIAQIREVFIQTLDDLTWMDAETKKRAEEKALAIKERIGYPDDIVSNDNKLNNEYLELNYKEDEYFENIIQNLKFSQSKQLKKLREKVDKDEWISGAAVVNAFYSSGRNQIVFPAGILQPPFFSAQQSNSLNYGGIGMVIGHEITHGFDDNGRNFNKDGDLVDWWTQQSASNFKEQSQCMVYQYGNFSWDLAGGQHLNGINTLGENIADNGGLGQAYRAYQNYIKKNGEEKLLPGLDLNHKQLFFLNFAQVWCGTYRPEYAVNSIKTDVHSPGNFRIIGTLQNSAEFSEAFHCRKNSYMNPEKKCRVW
125I-Aβ1-40 peptide degradation in primary neuronal cultures [1]: neprilysin expressing neuronal cell cultures virtually destroyed all Aβ peptide in comparison to the controls

B2: recombinant rat insulysin with an N-terminal His6 affinity tag, expressed in baculovirus-infected Sf9 cells (protein)
chain: MNNPAIQRIEDHIVKSPEDKREYRGLELANGIKVLLISDPTTDKSSAALDVHIGSLSDPPNIPGLSHFCEHMLFLGTKKYPKENEYSQFLSEHAGSSNAFTSGEHTNYYFDVSHEHLEGALDRFAQFFLCPLFDASCKDREVNAVDSEHEKNVMNDAWRLFQLEKATGNPKHPFSKFGTGNKYTLETRPNQEGIDVREELLKFHSTYYSSNLMAICVLGRESLDDLTNLVVKLFSEVENKNVPLPEFPEHPFQEEHLKQLYKIVPIKDIRNLYVTFPIPDLQQYYKSNPGHYLGHLIGHEGPGSLLSELKSKGWVNTLVGGQKEGARGFMFFIINVDLTEEGLLHVEDIILHMFQYIQKLRAEGPQEWVFQECKDLNAVAFRFKDKERPRGYTSKIAGKLHYYPLNGVLTAEYLLEEFRPDLIDMVLDKLRPENVRVAIVSKSFEGKTDRTEQWYGTQYKQEAIPEDVIQKWQNADLNGKFKLPTKNEFIPTNFEILALEKDATPYPALIKDTAMSKLWFKQDDKFFLPKACLNFEFFSPFAYVDPLHCNMAYLYLELLKDSLNEYAYAAELAGLSYDLQNTIYGMYLSVKGYNDKQPILLKKITEKMATFEIDKKRFEIIKEAYMRSLNNFRAEQPHQHAMYYLRLLMTEVAWTKDELKEALDDVTLPRLKAFIPQLLSRLHIEALLHGNITKQAALGVMQMVEDTLIEHAHTKPLLPSQLVRYREVQLPDRGWFVYQRRNEVHNNCGIEIYYQTDMQSTSENMFLELFCQIISEPCFNTLRTKEQLGYIVFSGPRRANGIQGLRFIIQSEKPPHYLESRVEAFLITMEKAIEDMTEEAFQKHIQALAIRRLDKPKKLSAECAKYWGEIISQQYNYDRDNIEVAYLKTLSKDDIIKFYKEMLAVDAPRRHKVSVHVLAREMDSCPVVGEFPSQNDINLSEAPPLPQPEVIHNMTEFKRGLPLFPLVKPHINFMAAKL
prevention of deposition of radiolabeled Aβ1-40 onto synthaloid, 60 minutes preincubation with insulysin (FIG. 9B) [1]: 50 ng insulysin is able to prevent the deposition of radiolabeled Aβ1-40 onto the synthetic amyloid | prevention of deposition of radiolabeled Aβ1-40 onto synthaloid, insulysin added at zero time (FIG. 9A) [1]: 50 ng of insulysin is able to prevent the deposition of radiolabeled Aβ1-40 | rate of cleavage of 25 µM Aβ1-40 [1]: 1.2 µmols/min/mg enzyme | sparing of neurotoxic effects on primary rat cortical neurons (30 µM Aβ1-40, 48 hrs) [1]: as little as 50 ng of insulysin was effective in sparing the neurotoxic effects of Aβ1-40 | specific activity of the recombinant enzyme (disappearance of β-endorphin by HPLC) [2]: 2.6 µmols/min/mg | release of radioactivity from 125I-Aβ1-40 first deposited onto synthetic amyloid [3]: After a 24 hr incubation with 5 µg of insulysin no radioactivity was released | sparing of neurotoxic effects on primary rat cortical neurons (25 µM Aβ1-42, 48 hrs) [4]: 500 ng of insulysin was effective in sparing the neurotoxic effects of Aβ1-42
